Measured values published in the supplement of paper PMC7877785.
± gives the uncertainty stated by the source.

Test: self-splicing fitness, log relative to wild type (ln ratio); higher = more splicing; Tetrahymena group I intron in knt gene, E. coli kanamycin selection, DiMSum; sequences stand for … in CUCUCU…GGAGGGAAAAGUUAUCAGGCAUGCACCUGGUAGCUAGUCUUUAAACCAAUAGAUUGCAUCGGUUUAAAAGGCAAGACCGUCAAAUUGCGGGAAAGGGGUCAACAGCCGUUCAGUACCAAGUCUCAGGGGAAACUUUGAGAUGGCCUUGCAAAGGGUAUGGUAAUAAGCUGACGGACAUGGUCCUAACCACGCAGCCAAGUCCUAAGUCAACAGAUCUUCUGUUGAUAUGGAUGCAGUUCACAGACUAAAUGUCGGUCGGGGAAGAUGUAUUCUUCUCAUAAGAUAUAGUCGGACCUCUCCUUAAUGGGAGCUAGCGGAUGAAGUGAUGCAACACUGGAGCCGCUGGGAACUAAUUUGUAUGCGAAAGUAUAUUGAUUAGUUUUGGAGUACUCGUGGUCG
Method in brief: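 A randomised library covering all eight P1ex-region intron nucleotides was built with the intron in the knt kanamycin-resistance gene on pET-22b(+) and held in E. coli BL21(DE3). Cells were grown overnight at 37°C or 30°C on LB agar, with or without 25 μg/mL kanamycin, plus 100 μg/mL carbenicillin, 50 μM IPTG and 0.2% rhamnose, and pooled colonies were amplicon-sequenced on an Illumina HiSeq 2500. DiMSum fitness is the error-weighted combination of wild-type-normalised replicate fold changes, kanamycin versus none.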

Row | Sequence | self-splicing fitness (ln) (30 °C) | self-splicing fitness (ln) (37 °C)
1 | CUGUAGCAAUAUUACGUUUA | -3.7 ± 0.32 | -2.51 ± 0.16
2 | ACCAAGCAAUAUUACGCGUU | -1.91 ± 0.06 | -0.292 ± 0.075
3 | CAAAAGCAAUAUUACGGGUC | -3.11 ± 0.094 | -2.51 ± 0.12
4 | CCUCAGCAAUAUUACGGAGG | -4.45 ± 0.24 | -2.33 ± 0.21
5 | UGGAAGCAAUAUUACGCCUA | 0.049 ± 0.092 | -0.109 ± 0.12
6 | UUAUAGCAAUAUUACGAUCU | -1.74 ± 0.32 | -1.17 ± 0.25
7 | GCCGAGCAAUAUUACGUGUA | -1.32 ± 0.071 | -0.983 ± 0.078
8 | UAGUAGCAAUAUUACGUAUU | -4.59 ± 0.36 | -1.96 ± 0.2
9 | UGCAAGCAAUAUUACGUUAG | -2.79 ± 0.14 | -2.02 ± 0.15
10 | GAAGAGCAAUAUUACGAUUG | -2.53 ± 0.29 | -2.4 ± 0.39
11 | UCCCAGCAAUAUUACGUACU | -3.77 ± 0.19 | -0.776 ± 0.14
12 | GGGAAGCAAUAUUACGUUUU | -2.68 ± 0.23 | -1.62 ± 0.25
13 | CCAAAGCAAUAUUACGAGCC | -3.2 ± 0.21 | -2.07 ± 0.19
14 | UAUAAGCAAUAUUACGUACU | -1.69 ± 0.16 | -0.993 ± 0.11
15 | CCGUAGCAAUAUUACGUUAC | -4.02 ± 0.32 | -2.27 ± 0.42
16 | GCGUAGCAAUAUUACGGUAA | -1.02 ± 0.13 | -0.178 ± 0.1
17 | GCGAAGCAAUAUUACGGGCA | -1.96 ± 0.15 | -0.529 ± 0.11
18 | GCAGAGCAAUAUUACGGUCC | -2.22 ± 0.29 | -2.05 ± 0.4
19 | ACGUAGCAAUAUUACGGUGU | -2.43 ± 0.11 | -1.81 ± 0.14

Row | Sequence | self-splicing fitness (ln) (30 °C) | self-splicing fitness (ln) (37 °C)
20 | ACGAAGCAAUAUUACGAUGC | -3.28 ± 0.21 | -2.01 ± 0.37
21 | UCUCAGCAAUAUUACGAUGG | -0.935 ± 0.11 | -1 ± 0.14
22 | UAGCAGCAAUAUUACGGGAG | -2.58 ± 0.099 | -2.11 ± 0.11
23 | UGAGAGCAAUAUUACGGCUU | -4.13 ± 0.42 | 
24 | ACUAAGCAAUAUUACGGAUG | -2.49 ± 0.12 | -1.42 ± 0.13
25 | AGGCAGCAAUAUUACGCAAC | -0.42 ± 0.21 | -1.41 ± 0.34
26 | UCCAAGCAAUAUUACGAAGA | -0.503 ± 0.086 | -0.326 ± 0.087
27 | UUCCAGCAAUAUUACGUGCG | -1.88 ± 0.1 | -1.59 ± 0.11
28 | GGCAAGCAAUAUUACGAAGA | -2.24 ± 0.18 | -0.478 ± 0.12
29 | GUCCAGCAAUAUUACGAGGU | -2.34 ± 0.11 | -1.34 ± 0.13
30 | UACGAGCAAUAUUACGUCUU | -3.95 ± 0.33 | -3.41 ± 0.24
31 | GUAUAGCAAUAUUACGUUUG | -4.31 ± 0.46 | -2.11 ± 0.2
32 | AAGGAGCAAUAUUACGUUAC |  | -1.53 ± 0.35
33 | UUAAAGCAAUAUUACGACUC | -0.15 ± 0.12 | -0.0274 ± 0.15
34 | CAGAAGCAAUAUUACGCCUG | -2.25 ± 0.23 | -3.94 ± 0.39
35 | GCUCAGCAAUAUUACGUUGG | -1.96 ± 0.17 | -2.46 ± 0.19
36 | AGGAAGCAAUAUUACGGUUA | -0.766 ± 0.1 | -0.654 ± 0.1
37 | AUGGAGCAAUAUUACGAUAG | -3.59 ± 0.4 | -1.67 ± 0.32
38 | GUGAAGCAAUAUUACGGAAG | -1.94 ± 0.19 | 0.825 ± 0.21
